One block for each molecule: values may come before it. Residues, ends and D or L forms follow the SMILES beside them.
Tests used:
ERK2 [1] = target: T1, ERK2 (Rattus norvegicus, UniProt P63086); assay: Steady-state kinetics: inhibition of Ets phosphorylation by ERK2; type: biochemical; settings: 1 mM MgATP
T1 construct: made in house
Protocol: Activated tagless ERK2 was generated essentially as described in (Kaoud, T.S. et al. manuscript in preparation). Expression and purification of Ets-1 (1-138) was followed by the method described in the previously published literature.
(§1) zReactions were carried out at 27°C in kinase assay buffer (25 mM HEPES pH 7.4, 100 mM KCl, 2 mM DTT, 40 µg/mL BSA, and 20 mM MgCl2) containing 2 nM ERK2 and varied concentrations of substrates and inhibitors. Rates were measured under conditions where total product formation represented less than 10% of the initial substrate concentrations. The reaction was incubated for 10 min before initiation by addition of enzyme and quantified as described previously. Initial rates were determined by linear least squares fitting to plots of product against time. Reciprocal plots of 1/v against 1/s were checked for linearity, before the data were fitted to eqn. 1 using a non-linear least squares approach, assuming equal variance for velocities, using the program Kaleidagraph 3.5 (Synergy software). The intercepts [drawing 1] and slopes [drawing 2] obtained from these fits were then plotted against either the inhibitor concentration (i) (for inhibition experiments) or the reciprocal of the non-varied substrate concentration (1/s) (for initial velocity experiments). These plots were used to determine the appearance of the overall kinetic equation. Values for kinetic constants were then obtained using the program Scientist (Micromath) by fitting the kinetic data to the relevant over-all equation. Data conforming to a sequential initial velocity pattern were fitted to eqn 2; data conforming to linear competitive inhibition were fitted to eqn. 3; data conforming to hyperbolic mixed inhibition were fitted to eqn. 4. Dose-response curves for data conforming to linear inhibition were fitted to eqn. 5; and for data conforming to hyperbolic inhibition to eqn. 6. [drawing 3] (1) [drawing 4] (2) [drawing 5] (3) [drawing 6] (4) [drawing 7] (5) [drawing 8] (6)

ERK2 [2] = target: T1, ERK2; assay: Steady-state kinetics: inhibition of Δ23N-Ets phosphorylation by ERK2; type: biochemical; settings: Δ23N-Ets 50 µM, 1 mM MgATP, Lig-D 0–200 µM (eqn 6) or Lig-F 0–400 µM (eqn 5); fitted k0 5.5±0.1 s^−1 (Lig-D), 5.4±0.1 s^−1 (Lig-F); read-out: K50, concentration giving half the maximal change in kobs for phosphorylation of Δ23N-Ets
Protocol: as §1, with “Data conforming to a sequential initial velocity pattern were fitted to eqn 2; data conforming to linear competitive inhibition were fitted to eqn. 3; data conforming to hyperbolic mixed inhibition were fitted to eqn. 4. Dose-response curves for data conforming to linear inhibition were fitted to eqn. 5; and for data conforming to hyperbolic inhibition to eqn. 6. [drawing 3] (1) [drawing 4] (2) [drawing 5] (3) [drawing 6] (4) [drawing 7] (5) [drawing 8] (6)” left out

ERK2 [3] = target: T1, ERK2; assay: Steady-state parameters for phosphorylation of Ets and N-terminal Ets mutants by ERK2; type: biochemical; settings: phosphorylation by ERK2 (2 nM), 27°C
Protocol: pET-28a Ets was PCR amplified with a forward primer containing an NdeI site (encoding the initial methionine) followed by the codon encoding Phe-24 (5′-GG GAATTCCATATGTTCCCTTCCCCGGACATG-3′) and an outer reverse primer (5′-GCTAGTTATTGCTCAGCGGTGG-3′) using the following PCR conditions: 94°C for 5 min to denature the complementary strands; 30 cycles of 55°C for 30 sec to anneal the primers, extension for 1 min at 72°C, followed by a denaturation step at 94°C for 45 sec; complementary strands were extended a final 10 min at 72°C. The N-terminal mutant PCR product was digested with NdeI and HindIII and ligated into NdeI-HindIII digested pET-28a. All proteins produced from pET-28a have an N-terminal sequence of […]- prior to the initial methionine encoded by the Ets cDNA giving EtsΔ24-138 an approximate mass of 15, 391 Da whereas Ets 1-138 has a mass of 17, 681 Da (lacking the initial methionine).
pET28a-Ets was modified by overlap extension polymerase chain reaction to construct the single cysteine mutant of Ets (C99A/C106A/C112A) in an Ets S26A background as reported elsewhere. Mutations were produced by a single-step PCR reaction using the following PCR amplification reaction (50 µL) contained Phusion DNA polymerase GC buffer, 200 µM each of the four deoxynucleoside triphosphates, 2 mM MgCl2, 3% DMSO, 80 ng of template DNA (Ets-C31 pET28a vector), 0.5 µM primers forward and reverse, and 1 µL of Phusion DNA polymerase (Finnzymes, USA, Product # F-530-S). […]
zReactions were carried out at 27°C in kinase assay buffer (25 mM HEPES pH 7.4, 100 mM KCl, 2 mM DTT, 40 µg/mL BSA, and 20 mM MgCl2) containing 2 nM ERK2 and varied concentrations of substrates and inhibitors. Rates were measured under conditions where total product formation represented less than 10% of the initial substrate concentrations. The reaction was incubated for 10 min before initiation by addition of enzyme and quantified as described previously. Initial rates were determined by linear least squares fitting to plots of product against time. […]

ERK2 [4] = target: T1, ERK2; settings: stopped-flow; cited from earlier work
Text: Since the seminal paper by Wright the role of intrinsically disordered regions of proteins has been a topic of great interest. […] In fact, many docking sites for the DRS of a MAPK are found at the extreme termini of MAPK ligands, such as the upstream activators the MKKs, and may be disordered. For examp ...

[5] = 25 mM HEPES pH 7.4, 100 mM KCl, 20 mM MgCl2
[6] = fit of Lig-D inhibition data (Fig. 5D), eqn 4, Ets 3–59 µM
[7] = fit of Lig-F inhibition data (Fig. 5B), eqn 3, Ets 2–12 µM

T1 sequence (P63086 whole entry): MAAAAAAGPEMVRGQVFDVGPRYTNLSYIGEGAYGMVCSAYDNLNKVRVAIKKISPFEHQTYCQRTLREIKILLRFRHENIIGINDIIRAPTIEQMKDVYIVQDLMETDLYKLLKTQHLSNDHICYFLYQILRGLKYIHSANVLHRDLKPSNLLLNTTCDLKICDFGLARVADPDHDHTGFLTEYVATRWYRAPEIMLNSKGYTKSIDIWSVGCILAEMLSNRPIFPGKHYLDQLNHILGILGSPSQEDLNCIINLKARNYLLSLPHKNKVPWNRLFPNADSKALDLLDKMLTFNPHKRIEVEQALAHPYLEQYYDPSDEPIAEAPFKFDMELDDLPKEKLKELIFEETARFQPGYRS

IC50 (ERK2 [1]; Ets 6.4 µM, peptide 0–400 µM, 2 nM ERK2, 27°C, HEPES pH 7.4, fit eqn 6 (Lig-D, partial) or eqn 5 (Lig-F, full), fitted k0 8.0±0.2 s^−1 (Lig-D), 10.3±0.2 s^−1 (Lig-F), read-out: K50, concentration giving half the maximal change in kobs for phosphorylation of Ets): 33.5 ± 1.9 µM
Ki (ERK2 [1]; Lig-F 0–200 µM, Ets 2–12 µM, fit eqn 3, read-out: apparent competitive inhibition constant (Ki), full linear competitive inhibition vs Ets): 22 ± 1.9 µM
IC50 (ERK2 [2]): 43 ± 2 µM
Molecule: CC(=O)N[C@@H](Cc1ccc(O)cc1)C(=O)N[C@@H](C)C(=O)N1CCC[C@H]1C(=O)N[C@@H](CCCNC(=N)N)C(=O)N[C@@H](C)C(=O)N1CCC[C@H]1C(=O)N[C@@H](C)C(=O)N[C@@H](CCCCN)C(=O)N[C@@H](CC(C)C)C(=O)N[C@@H](C)C(=O)N[C@@H](Cc1ccccc1)C(=O)N[C@@H](CCC(N)=O)C(=O)N[C@@H](Cc1ccccc1)C(=O)N1CCC[C@H]1C(=O)N[C@@H](CO)C(=O)N[C@@H](CCCNC(=N)N)C(N)=O [Lig-F] (Ac-YAPRAPAKLAFQFPSR-NH2)

apparent Michaelis constant for Ets (ERK2 [1]; [6]): 6.3 ± 1.7 µM
apparent catalytic constant for Ets phosphorylation (ERK2 [1]; [6]): 14.1 ± 1.3 s⁻¹
apparent Michaelis constant for Ets (ERK2 [1]; [7]): 5.6 ± 0.7 µM
apparent catalytic constant for Ets phosphorylation (ERK2 [1]; [7]): 14.9 ± 0.8 s⁻¹
B1: Ets: His-tagged murine Ets-1 residues 1-138, ERK2 substrate; N-terminus MKAAVDLKPTLTII (protein, UniProt P27577 1-138, looked up, fragment)
chain: MKAAVDLKPTLTIIKTEKVDLELFPSPDMECADVPLLTPSSKEMMSQALKATFSGFTKEQQRLGIPKDPRQWTETHVRDWVMWAVNEFSLKGVDFQKFCMSGAALCALGKECFLELAPDFVGDILWEHLEILQKEDVK
modifications: His tag
k cat/K m (ERK2 [3]; 25 mM HEPES pH 7.4): 1e+06 M⁻¹ s⁻¹
K m (ERK2 [3]; [5]): 17.0 ± 4.0 µM
k cat (ERK2 [3]; [5]): 18.0 ± 2.0 s⁻¹

B2: phospho Ets: Ets phosphorylated by ERK2 (on Thr-38), product of the reaction (protein, UniProt P27577 1-138, looked up, fragment)
chain: MKAAVDLKPTLTIIKTEKVDLELFPSPDMECADVPLLTPSSKEMMSQALKATFSGFTKEQQRLGIPKDPRQWTETHVRDWVMWAVNEFSLKGVDFQKFCMSGAALCALGKECFLELAPDFVGDILWEHLEILQKEDVK
modifications: phosphorylated Thr38; His tag
notes: Ets phosphorylated by ERK2 (on Thr-38), product of the reaction
rate constant for association k on (ERK2 [4]): 5e+06 M⁻¹ s⁻¹
rate constant for dissociation k (ERK2 [4]): > 100 s⁻¹

From PMC3073974, “A Model of a MAPK•Substrate Complex in an Active Conformation: A Computational and Experimental Approach” (PLoS ONE, 2011)
